From publication PMC8465892, “CDR1 Composition Can Affect Nanobody Recombinant Expression Yields” (Biomolecules, 2021)

Target: T1, Her2 ectodomain-Fc (UniProt P04626 23-652)
T1 construct: Her2 ectodomain
Assay: SPR; Biacore T200, 25 °C; Her2 ectodomain-Fc immobilized by amine-coupling on a CM5 chip at 1180 RU; nanobodies injected at 30 µL/min in 20 mM Hepes, 150 mM NaCl, 3 mM EDTA, 0.005% Tween 20, pH 7.4; eight concentrations between 250 and 3.5 nM; 1:1 Langmuir model
Settings: both partners purified

Kd | Binder
23.5 nM | A10 mutG0 (VHH, A10 wt with a glycine inserted after S31 in CDR1 (G31a); also called G31a; source: gene synthetized by Twist Bioscience, pET-derived vectors, produced as previously reported [17]) VHH: EVQLQASGGGFVQPGGSLRLSCAASGATSGNISNMGWFRQAPGKEREFVSAISRAESRPLYYADSVKGRFTISRDNSKNTVYLQMNSLRAEDTATYYCAYMPLVRHKAYWGQGTQVTVSS
4.9 nM | A10 wt (VHH, anti-Her2 nanobody isolated by panning a synthetic library; also called anti-Her2 ectodomain nanobody A10; source: pET-derived vectors, produced as previously reported [17]) VHH: EVQLQASGGGFVQPGGSLRLSCAASGATSNISNMGWFRQAPGKEREFVSAISRAESRPLYYADSVKGRFTISRDNSKNTVYLQMNSLRAEDTATYYCAYMPLVRHKAYWGQGTQVTVSS

The next lines start with the binder.

Binder | Kd
A10 mutKG (VHH, A10 wt with a glycine inserted after A29 in CDR1 (G29a); also called G29a; source: gene synthetized by Twist Bioscience, pET-derived vectors, produced as previously reported [17]) VHH: EVQLQASGGGFVQPGGSLRLSCAASGAGTSNISNMGWFRQAPGKEREFVSAISRAESRPLYYADSVKGRFTISRDNSKNTVYLQMNSLRAEDTATYYCAYMPLVRHKAYWGQGTQVTVSS | 34.7 nM
A10 mutKG.1 (VHH, A10 mutKG (G29a) with five framework mutations printed as Q8E, F13L, S51A, R90K, A91P; source: gene synthetized by Doulix, pET-derived vectors, produced as previously reported [17]) VHH: EVQLQESGGGLVQPGGSLRLSCAASGAGTSNISNMGWFRQAPGKEREFVAAISRAESRPLYYADSVKGRFTISRDNSKNTVYLQMNSLKPEDTATYYCAYMPLVRHKAYWGQGTQVTVSS | 9.9 nM
